IC50 of the inhibition of human serum complement (lysis of chicken erythrocytes), rhC1INH 0.0099 to 20.25 IU/mL; printed as activity against human C1-esterase in the blood serum, Biological Activity, U/mL: inhibition of the C1s subunit, chromogenic method (TECHNOCHROM C1-INH Kit) and Specific Activity, U/mg: inhibition of the C1s subunit, chromogenic method (TECHNOCHROM C1-INH Kit) data for 1 substance are collected here from paper PMC8621594.

Test [1] concerns the target human C1s (human).
The target in test [2] is human C1s (human). This is another data set of the same source.

recombinant human C1 esterase inhibitor (rhC1INH) from Chinese hamster ovary (CHO) cells, sequence (P05155 23-500): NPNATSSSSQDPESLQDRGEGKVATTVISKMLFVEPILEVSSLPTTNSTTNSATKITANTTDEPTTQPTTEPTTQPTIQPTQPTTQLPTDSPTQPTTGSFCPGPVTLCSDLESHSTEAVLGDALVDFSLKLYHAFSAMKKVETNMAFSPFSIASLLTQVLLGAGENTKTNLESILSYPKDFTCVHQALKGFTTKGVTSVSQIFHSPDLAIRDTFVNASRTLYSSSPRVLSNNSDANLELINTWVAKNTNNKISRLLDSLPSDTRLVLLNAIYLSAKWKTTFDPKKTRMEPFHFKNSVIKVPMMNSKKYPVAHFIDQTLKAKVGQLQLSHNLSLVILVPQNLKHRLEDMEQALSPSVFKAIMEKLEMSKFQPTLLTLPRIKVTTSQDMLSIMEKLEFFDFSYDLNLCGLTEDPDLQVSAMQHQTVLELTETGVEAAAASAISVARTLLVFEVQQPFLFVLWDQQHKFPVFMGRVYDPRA

For “recombinant human C1 esterase inhibitor (rhC1INH) from Chinese hamster ovary (CHO) cells (from UniProt P05155 23-500) (natural protein)”, the IC50 of the inhibition of human serum complement (lysis of chicken erythrocytes), rhC1INH 0.0099 to 20.25 IU/mL; printed as activity against human C1-esterase in the blood serum in the test with human C1s (human) [1] was found to be 1.85 IU/mL. In the test with human C1s (human) [2], this substance showed a Biological Activity, U/mL: inhibition of the C1s subunit, chromogenic method (TECHNOCHROM C1-INH Kit) of 175 U/mL and a Specific Activity, U/mg: inhibition of the C1s subunit, chromogenic method (TECHNOCHROM C1-INH Kit) of 9.5 U/mg.
